Results reported in patent publication US20120207777A1 (Novartis, published 2012).

Target: the molecule itself
Assay: gel filtration and gel analysis with and without DTT (self-association)

B1: Recombinant His-tagged AcfD (orf3526) from strain IHE3034 without a leader peptide (other)
chain: CDGGGSGSSSDTPSVDSGSGTLPEVKPDPTPTPEPTPEPTPDPEPTPDPTPDPEPTPEPEPEPVPTKTGYLTLGGSQRVTGATCNGESSDGFTFTPGNTVSCVVGSTTIATFNTQSEAARSLRAVDKVSFSLEDAQELANSENKKTNAISLVTSSDSCPADAEQLCLTFSSVVDRARFEKLYKQIDLATDNFSKLVNEEVENNAATDKAPSTHTSTVVPVTTEGTKPDLNASFVSANAEQFYQYQPTEIILSEGQLVDSLGNGVAGVDYYTNSGRGVTDENGKFSFSWGETISFGIDTFELGSVRGNKSTIALTELGDEVRGANIDQLIHRYSTTGQNNTRVVPDDVRKVFAEYPNVINEIINLSLSNGATLDEGDQNVVLPNEFIEQFKTGQAKEIDTAICAKTDGCNEARWFSLTTRNVNDGQIQGVINKLWGVDTNYQSVSKFHVFHDSTNFYGSTGNARGQAVVNISNSAFPILMARNDKNYWLAFGEKRAWDKNELAYITEAPSIVQPENVTRDTATFNLPFISLGQVGEGKLMVIGNPHYNSILRCPNGYSWGGGVNSKGECTLSGDSDDMKHFMQNVLRYLSNDIWQPNTKSIMTVGTNLENVYFKKAGQVLGNSAPFAFHEDFTGITVKQLTSYGDLNPEEIPLLILNGFEYVTQWSGDPYAVPLRADTSKPKLTQQDVTDLIAYLNKGGSVLIMENVMSNLKEESASSFVRLLDAAGLSMALNKSVVNNDPQGYPDRVRQRRATGIWVYERYPAADGAQPPYTIDPNTGEVTWKYQQDNKPDDKPKLEVASWQEEVEGKQVTRYAFIDEAEYTTEESLEAAKAKIFEKFPGLQECKDSTYHYEINCLERRPGTDVPVTGGMYVPRYTQLNLDADTAKAMVQAADLGTNIQRLYQHELYFRTKGSKGERLNSVDLERLYQNMSVWLWNDTKYRYEEGKEDELGFKTFTEFLNCYANDAYAGGTKCSADLKKSLVDNNMIYGDGSSKAGMMNPSYPLNYMEKPLTRLMLGRSWWDLNIKVDVEKYPGSVSAKGESVTENISLYSNPTKWFAGNMQSTGLWAPAQQDVTIKSSASVPVTVTVALADDLTGREKHEVALNRPPRVTKTYTLEANGEVTFKVPYGGLIYIKGDSKDDVSANFTFTGVVKAPFYKDGEWKNDLDSPAPLGELESASFVYTTPKKNLEASNFTGGVAEFAKDLDTFASSMNDFYGRNDEDGKHRMFTYKNLTGHKHRFTNDVQISIGDAHSGYPVMNSSFSTNSTTLPTTPLNDWLIWHEVGHNAAETPLNVPGATEVANNVLALYMQDRYLGKMNRVADDITVAPEYLDESNGQAWARGGAGDRLLMYAQLKEWAEENFDIKQWYPDGELPKFYSDRKGMKGWNLFQLMHRKARGDDVGNSTFGGKNYCAESNGNAADTLMLCASWVAQADLSEFFKKWNPGASAYQLPGATEMSFQGGVSSSAYSTLASLKLPKPEKGPETINKVTEHKMSAE
notes: Expressed without the leader peptide; also called 3526 (his tag, leader peptide removed); not shown: His tag
Q: Does B1 bind?
A: binds
